Laboratory results: patent US20190360025A1

Key:
[1] = target: tumor necrosis factor alpha (TNF-α), R&D Systems 210-TA-005 (UniProt P01375); experiment: c-PLA, buffer; TNF-α 1.00E-08 M
[2] = target: tumor necrosis factor alpha (TNF-α), R&D Systems 210-TA-005 (UniProt P01375); experiment: c-PLA, buffer; TNF-α 1.00E-09 M
[3] = target: tumor necrosis factor alpha (TNF-α), R&D Systems 210-TA-005 (UniProt P01375); experiment: c-PLA, buffer; TNF-α 1.00E-12 M
[4] = target: tumor necrosis factor alpha (TNF-α), R&D Systems 210-TA-005 (UniProt P01375); experiment: t-PLA, buffer; TNF-α 1.00E-11 M
[5] = target: tumor necrosis factor alpha (TNF-α), R&D Systems 210-TA-005 (UniProt P01375); experiment: t-PLA, buffer; TNF-α 5.00E-07 M
[6] = target: tumor necrosis factor alpha (TNF-α), R&D Systems 210-TA-005 (UniProt P01375); experiment: c-PLA 10X probes, buffer; TNF-α 1.00E-08 M
[7] = target: tumor necrosis factor alpha (TNF-α), R&D Systems 210-TA-005 (UniProt P01375); experiment: c-PLA 10X probes, buffer; TNF-α 1.00E-09 M
[8] = target: tumor necrosis factor alpha (TNF-α), R&D Systems 210-TA-005 (UniProt P01375); experiment: c-PLA 1X probes, human plasma; TNF-α 1.00E-10 M
[9] = target: tumor necrosis factor alpha (TNF-α), R&D Systems 210-TA-005 (UniProt P01375); experiment: t-PLA 1X probes, human plasma; TNF-α 1.00E-09 M
[10] = target: tumor necrosis factor alpha (TNF-α), R&D Systems 210-TA-005 (UniProt P01375); experiment: t-PLA 1X probes, human plasma; TNF-α 1.00E-11 M
[11] = target: tumor necrosis factor alpha (TNF-α), R&D Systems 210-TA-005 (UniProt P01375); experiment: c-PLA 10X probes, human plasma; TNF-α 1.00E-09 M
[12] = target: tumor necrosis factor alpha (TNF-α), R&D Systems 210-TA-005 (UniProt P01375); experiment: c-PLA 10X probes, human plasma; TNF-α 1.00E-13 M
[13] = target: tumor necrosis factor alpha (TNF-α), R&D Systems 210-TA-005 (UniProt P01375); experiment: t-PLA 10X probes, human plasma; TNF-α 1.00E-12 M
[14] = target: tumor necrosis factor alpha (TNF-α), R&D Systems 210-TA-005 (UniProt P01375); experiment: t-PLA 10X probes, human plasma; TNF-α 1.00E-13 M
[15] = target: vascular endothelial growth factor (VEGF), R&D Systems 293-VE-010 (human) (UniProt P15692); experiment: c-PLA, buffer; VEGF 1.00E-08 M
[16] = target: vascular endothelial growth factor (VEGF), R&D Systems 293-VE-010 (human) (UniProt P15692); experiment: c-PLA, buffer; VEGF 1.00E-09 M
[17] = target: vascular endothelial growth factor (VEGF), R&D Systems 293-VE-010 (human) (UniProt P15692); experiment: t-PLA, buffer; VEGF 1.00E-09 M
[18] = target: vascular endothelial growth factor (VEGF), R&D Systems 293-VE-010 (human) (UniProt P15692); experiment: t-PLA, buffer; VEGF 1.00E-12 M
[19] = target: vascular endothelial growth factor (VEGF), R&D Systems 293-VE-010 (human) (UniProt P15692); experiment: c-PLA, human plasma; VEGF 1.00E-10 M
[20] = target: vascular endothelial growth factor (VEGF), R&D Systems 293-VE-010 (human) (UniProt P15692); experiment: c-PLA, human plasma; VEGF 1.00E-13 M
[21] = target: vascular endothelial growth factor (VEGF), R&D Systems 293-VE-010 (human) (UniProt P15692); experiment: c-PLA, chicken plasma; VEGF 1.00E-09 M
[22] = target: vascular endothelial growth factor (VEGF), R&D Systems 293-VE-010 (human) (UniProt P15692); experiment: t-PLA, chicken plasma; VEGF 1.00E-09 M
[23] = target: vascular endothelial growth factor (VEGF), R&D Systems 293-VE-010 (human) (UniProt P15692); experiment: t-PLA, chicken plasma; VEGF 1.00E-12 M
[24] = target: vascular endothelial growth factor (VEGF), R&D Systems 293-VE-010 (human) (UniProt P15692); experiment: c-PLA with preamplification; VEGF 1.00E-08 M
[25] = target: vascular endothelial growth factor (VEGF), R&D Systems 293-VE-010 (human) (UniProt P15692); experiment: c-PLA with preamplification; VEGF 1.00E-13 M
[26] = target: vascular endothelial growth factor (VEGF), R&D Systems 293-VE-010 (human) (UniProt P15692); experiment: t-PLA with preamplification; VEGF 1.00E-08 M
[27] = target: vascular endothelial growth factor (VEGF), R&D Systems 293-VE-010 (human) (UniProt P15692); experiment: t-PLA with preamplification; VEGF 1.00E-11 M
[28] = target: vascular endothelial growth factor (VEGF), R&D Systems 293-VE-010 (human) (UniProt P15692); experiment: t-PLA with preamplification; VEGF 1.00E-14 M

UniProt P15692, sequence (P15692 other isoform, or with tags, fused parts or gaps limits assumed): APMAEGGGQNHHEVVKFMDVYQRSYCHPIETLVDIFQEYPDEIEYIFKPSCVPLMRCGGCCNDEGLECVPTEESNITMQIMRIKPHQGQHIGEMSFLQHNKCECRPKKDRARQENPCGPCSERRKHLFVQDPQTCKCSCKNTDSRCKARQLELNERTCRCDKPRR
UniProt P01375, sequence (P01375 77-233 limits assumed): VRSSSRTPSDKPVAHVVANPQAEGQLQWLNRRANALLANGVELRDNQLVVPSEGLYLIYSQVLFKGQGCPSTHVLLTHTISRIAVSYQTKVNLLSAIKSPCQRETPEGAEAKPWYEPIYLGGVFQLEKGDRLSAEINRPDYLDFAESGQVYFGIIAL

Substance: affinity-purified polyclonal anti-TNF-α antibody (R&D Systems AF-210-NA)
- Counts [1]: 11600
- SBR [1]: 1030
- Counts [2]: 3700
- SBR [2]: 328
- Counts [3]: 4.62
- Counts [4]: 443000
- SBR [4]: 2.6
- Counts [5]: 1.33e+08
- SBR [5]: 780
- Counts [6]: 359000
- SBR [6]: 1960
- Counts [7]: 80000
- SBR [7]: 437
- Counts [8]: 331
- SBR [8]: 4.4
- Counts [9]: 4.96e+06
- SBR [9]: 21
- Counts [10]: 745000
- SBR [10]: 3.1
- Counts [11]: 45400
- SBR [11]: 21
- Counts [12]: 2030
- SBR [13]: 2.4
- Counts [14]: 1.36e+07
- SBR [14]: 1.2

Substance: affinity-purified polyclonal anti-VEGF antibody (R&D Systems AF-293-NA)
- Counts [15]: 483000
- SBR [15]: 16300
- Counts [16]: 778000
- SBR [16]: 26200
- Counts [17]: 3.98e+09
- SBR [17]: 11500
- Counts [18]: 3.69e+06
- SBR [18]: 11
- Counts [19]: 13800
- SBR [19]: 53
- Counts [20]: 310
- SBR [20]: 1.2
- Counts [21]: 73600
- SBR [21]: 7980
- Counts [22]: 2.39e+08
- SBR [22]: 3580
- Counts [23]: 787000
- SBR [23]: 12
- Counts [24]: 8.14e+07
- SBR [24]: 1370
- Counts [25]: 95500
- SBR [25]: 1.6
- Counts [26]: 1e+09
- SBR [26]: 5680
- Counts [27]: 1.26e+07
- SBR [27]: 71
- Counts [28]: 363000
